From PMC5794333, “Identification of osmoadaptive strategies in the halophile, heterotrophic ciliate Schmidingerothrix salinarum” (PLoS Biology, 2018)

What was measured:
[1] = tested on: O=C(O)CC(C(=O)O)C(O)C(=O)O; experiment: purified protein; settings: 0.05 M NaCl, 0.8 mM NADP+, 1 mM MgCl2, 32.5 mM Tris/HCl pH 7.5, concentration as DL-isocitrate, text b40 prints 0.010 mM, the table's Vmax/Km fits 0.019
O=C(O)CC(=O)C(=O)O = experiment: purified protein; settings: 0.05 M NaCl, 0.3 mM NADH, 32.5 mM Tris/HCl pH 7.5

| Substance | Km [1] [µM] | Vmax [1] [µmol/min/mg] | Km (O=C(O)CC(=O)C(=O)O) [µM] | Vmax (O=C(O)CC(=O)C(=O)O) [µmol/min/mg] |
| --- | --- | --- | --- | --- |
| ICDHS.salinarum (Schmidingerothrix salinarum) | 19 | 6.8 |  |  |
| MDHS.salinarum (Schmidingerothrix salinarum) |  |  | 38 | 2060 |
